Patent US20260265360A1, “USE OF ANTI-FAM19A5 ANTAGONISTS FOR TREATING HEARING DISORDERS” (NEURACLE SCIENCE CO., LTD., priority 2023, published 2026)

Experiments:
[1] = test system: human FAM19A5 protein epitope fragments F1-F6; assay: Epitope mapping: binding to BSA-conjugated FAM19A5 epitope fragments F1-F6 (Western blot / ELISA); conditions: ELISA
Description: Overlapping peptide fragments (F1-F6 epitope fragments; SEQ ID NOs: 178-183) of the human FAM19A5 protein were synthesized and conjugated to BSA (SEQ ID NOs: 322-327). Binding of the different anti-FAM19A5 antibodies to the BSA-conjugated peptide fragments F1-F6 was determined by Western blot analysis or ELISA assay. For the Western blot analysis, BSA-conjugated FAM19A5 fragments F1-F6 were separated by SDS polyacrylamide gel electrophoresis and transferred to a nitrocellulose membrane by the standard procedure. The membrane was incubated with the anti-FAM19A5 antibody (e.g., 1-65, […], 1-65-scFv-rabbit Fc-SSS), and the antigen-antibody complexes were detected with the appropriate secondary antibody conjugated with horse-radish peroxidase (anti-rabbit IgG (Fc specific)-HRP, 1:4000 dilution). For the ELISA assay, the following protocol was used. FAM19A5 fragment F1-F6 (diluted to 1 μg/mL in 50 mM carbonate buffer (Biosesang) or to 20 μg/mL for high concentration analysis) were used to coat the wells of 96-well immuno plates (Thermo Scientific) (100 μL/well) overnight at 4° C. and then subsequently washed twice in 1×PBS. The plates were then blocked with the blocking buffer (100 μL/well) for 1 hour at room temperature. During the 1-hour incubation, the relavant anti-FAM19A5 antibodies were diluted to 1 μg/mL (or 20 μg/mL for high concentration analysis) in the diluent buffer. Once the plates were washed (2× using 1×PBS), the diluted anti-FAM19A5 antibodies were added to the appropriate wells, and the plates were incubated at room temperature for 1 hour. The plates were subsequently washed for a total of five times using the washing buffer. Next, the ODP substrate (prepared by dissolving one ODP tablet (O-phenylenediamine Dihydrochloride, Thermo) into 9 mL of sterilized deionized water and 1 mL of 10× stable Peroxide Stable buffer (Theromo)) was added to each of the wells, and the color change reaction was allowed to occur for 10 minutes. This reaction was stopped by adding 100 μL of 2N H2SO4 (Daejung) to the wells. The absorption value of each of the wells was detected at 492 nm using a 96-well microplate reader (Molecular Device).

[2] = test system: inner hair cells of mouse cochlear explants; assay: Promotion of synaptogenesis (CtBP2 puncta); type: cell-based; conditions: antibody 1 μM
Description: Cochlear explant were cultured in medium consisting of plating media, which consist of Neurobasal media (Invitrogen), 1% N2 supplement, and 10 μg/mL Ampicillin with culture media with additional 1% FBS.
Postnatal day 4-5 (P4-5) C57BL/6 mice were sacrificed for inner ear dissection. Mouse head was bisected, and brain tissue was removed. Cochlea was carefully separated the from the extraneous bones in ice-cold HBSS (5 mM HEPES/1.3 mM CaCl2), 0.9 mM MgCl2, pH 7.4) or External solution (1.2 mM CaCl2), 1 mM MgCl2, 5 mM HEPES in HBSS). Then the stria vascularis and spiral bone plate was removed, and cochlea was cut into two to three sections. […]
Mouse cochlear explant cultures were treated with FAM19A5, FAM19A5 combined with a FAM19A5 antagonist (e.g., described herein, e.g., 1-30 antibody), or a FAM19A5 antagonist (e.g., described herein, e.g., 1-30 antibody) alone at 1 DIV to determine the level of synaptogenesis at 2 DIV by immunostaining CtBP2, a ribbon synapse marker. To quantify the number of CtBP2 puncta of individual inner hair cells, z-stack confocal images were exported in “multi-page” and the number of CtBP2 puncta from each individual inner hair cells were measured using ROI manger and multi-point tool from Fiji (Image J). Number of CtBP2 puncta from five individual inner hair cells were counted per image and 3 z-stack images were measured from each treatment group. […]

B1: 2-13: anti-FAM19A5 antibody; VH SEQ ID NO: 35, VL SEQ ID NO: 39 (antibody, V domains shown)
VH: AVTLDESGGGLQTPGGALSLVCKASGFTFSSHGMFWVRQTPGKGLEYVAEITNDGSGTNYGSAVKGRATISRDNGQSTVRLQLNNLRAEDTGTYFCARSTYECPGGFSCWGDTGQIDAWGHGTEVIVSS
VL: ALTQPSSVSANPGETVKITCSGGSYSYGWFQQKSPGSALVTVIYWDDERPSDIPSRFSGALSGSTNTLTITGVQADDEAVYFCGTEDISGTAGVFGAGTTLTVL
modifications: 2-13 VH; 2-13 VL
binding to any of the epitope fragments F1-F6 [1]: did not appear to bind

B2: 1-30: anti-FAM19A5 antibody, de-immunized variant of 3-2; VH SEQ ID NO: 235, VL SEQ ID NO: 240 (antibody, V domains shown)
VH: AVTLDESGGGLQTPGGALRLSCKASGFDFESFNMFWVRQAPGKGLEYVSQISSSEEDENYAPAVKGRATISRDNGQSTLYLQMNSLRAEDTGTYYCAKSSYDCPYGHCSSGVDSAGEIDAWGHGTEVIVSS
VL: ALTQPSSVSANPGETVKITCSGGGSEEEQYYYGWYQQKPGSAPVTLIYQDEERPSDIPSRFSGSTSGSTATLTITGVQAGDEADYYCGSWDSEDEDHFGAGTTLTVL
modifications: Low-PI VH, 1-30 VH, 1-17 VH, 1-32 VH, 4-11 VH, 6-10 VH; 1-30 VL
number of CtBP2 puncta within the inner hair cells vs control human IgG [2]: significant increase
